We go through four molecules from article doi:10.1101/2025.02.19.639050 (bioRxiv, 2025).

In one assay the target is T1, Oncostatin M (Homo sapiens, UniProt P13725).
T1 construct: Oncostatin M (OSM), the antigen injected in SPR; also called OSM
As to the kind of experiment: SPR; Biacore 8K+; antibody captured on a Protein A chip, antigen injected (typically 0.16, 0.8, 4, 20 and 100 nM; 180 s association, 600 s dissociation, 30 µl/min); HBS-EP buffer pH 7.4, 0.15 M NaCl; single cycle or multi cycle kinetics; 1:1 binding model. The settings on record: both partners purified. For orientation: In SPR one partner is held on a chip, and binding of the other changes the refractive index at the surface.

Assay [1] has as its target T2, Human epidermal growth factor receptor 2 (Homo sapiens, UniProt P04626).
T2 construct: ERBB2), the antigen injected in SPR; also called HER2; ERBB2
Described as above. The conditions noted are these: both partners purified.

T1 sequence (P13725 26-221): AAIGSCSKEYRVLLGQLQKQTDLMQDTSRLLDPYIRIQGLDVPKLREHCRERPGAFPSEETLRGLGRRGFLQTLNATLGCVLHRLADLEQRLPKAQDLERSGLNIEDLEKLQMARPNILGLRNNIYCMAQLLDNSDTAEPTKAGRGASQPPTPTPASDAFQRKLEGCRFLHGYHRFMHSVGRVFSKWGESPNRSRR

B1: seed OSM-N021 (antibody, V domains shown)
VH: EVQLVESGGGLVQPGGSLRLSCAASGFTFNIYSMNWVRQAPGKGLEWISYISGNSNTIYYADSVKGRFTISRDNAKNSVYLQMNSLRDEDTAVYYCARSLLRYFDWLSAFDIWGQGTMVTVSS
VL: EIVLTQSPGTLSLSPGERATLSCRASQSVGSSYLAWYQQRPGQAPRLLIHGASSRATGIPDRFSGSGSGTDFTLTISGLEPEDVAVYYCQQYGSSPLTFGGGTKVEIK
notes: IgG in SPR; the Fab was crystallised; source: Expi293F, transient (GLFs), purified (Protein A)
As for B1, in the assay with Oncostatin M, the binding result was “binds”.

B2: design 9N7M (antibody, V domains shown)
VH: EVQLVESGGGLVQPGGSLRLSCAASGFTFNIYSMNWVRQAPGKGLEWISYISSGSNTIYYADSVKGRFTISRDNAENSLYLQMNSLRDEDTAVYYCARSGLRYFDWLSYFDIWGQGTLVTVSS
VL: EIVLTQSPGTLSLSPGERATLSCRASQSVGSSYLAWYQQRPGQAPRLLIHGASSRATGIPDRFSGSGSGTDFTLTISGLEPEDVAVYYCQQYGSSPLTFGGGTKVEIK
notes: the Fab of this design is deposited as PDB 9N7M (heavy chain); the Fab of this design is deposited as PDB 9N7M (light chain); IgG in SPR; the Fab (CHO) was crystallised; also called design of seed OSM-N021 with G+Y mutations in the stem region of CDRH3; source: Expi293F, transient (GLFs), purified (Protein A)
Consider B2, for which, in the assay with Oncostatin M, the “fold improvement in affinity relative to the seed OSM-N021” value turned out to be 3.6 fold and the “ΔpKD relative to the seed OSM-N021” value was determined as 0.56.

B3: design 9N7O (antibody, V domains shown)
VH: EVQLVESGGGLVQPGGSLRLSCAASGFTFTIYSMNWVRQAPGKGLEWISYISSGSNTIYYADSVKGRFTISRDNAKNSLYLQMNSLRDEDTAVYYCARSSLRYFDWLSYFDYWGQGTMVTVSS
VL: EIVLTQSPGTLSLSPGERATLSCRASQSVGSSYLAWYQQRPGQAPRLLIHGASSRATGIPDRFSGSGSGTDFTLTISGLEPEDVAVYYCQQYGSSPLTFGGGTKVEIK
notes: the Fab of this design is deposited as PDB 9N7O (heavy chain); the Fab of this design is deposited as PDB 9N7O (light chain); IgG in SPR; the Fab (CHO) was crystallised; also called design of seed OSM-N021 with S+Y mutations in the stem region of CDRH3; source: Expi293F, transient (GLFs), purified (Protein A)
Consider B3, for which, in the assay with Oncostatin M, the “fold improvement in affinity relative to the seed OSM-N021” value was approximately 4.5 fold and the “ΔpKD relative to the seed OSM-N021” value turned out to be 0.65.

B4: ERBB2-P00873 (antibody, V domains shown)
VH: VQLVESDGGGLVQQGGSLRLSCAASGFNIKDRYIHWVRQAPGKGLEWVARIYPTNGYTRYADRVKGRFTISADTSKNTAYLQMFSLRAEDTAVYYCSRWGGDGFYAMDYWGQGTLVTVSS
VL: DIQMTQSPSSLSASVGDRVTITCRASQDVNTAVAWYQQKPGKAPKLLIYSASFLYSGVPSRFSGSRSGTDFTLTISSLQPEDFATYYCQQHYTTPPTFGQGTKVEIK
notes: as the heavy chain of m2 (trastuzumab, PDB 1N8Z) with changes; as the light chain of m2 (trastuzumab, PDB 1N8Z); Expressed as IgG; also called design of hu4D5 (5 edits, 1 insertion); source: Expi293F, transient (GLFs), purified (Protein A)
In the case of B4, in assay [1], the “fold improvement in binding relative to trastuzumab (hu4D5)” value was more than 4 fold and the “ΔpKD relative to trastuzumab (hu4D5)” value was found to be 0.688.
